Test results from patent EP2254592B1.

Biological target: purified folded MHC-complex (Example 57)
Assay: sandwich ELISA, W6/32 coated, HRP anti-β2m detection, OD450

## W6/32 mouse-anti-HLA-ABC antibody (Dako M0736)
  OD450 ratio to the negative control β2m: > 6 fold
